From patent publication US5573928A, “Porcine vasoactive intestinal peptide receptor and DNA” (Eli Lilly and Company, priority 1993, dated 1996) come the findings set out here.

For this test, the target named is T1, pVIP receptor (Sus scrofa, UniProt Q28992).
T1 sequence (Q28992 32-458): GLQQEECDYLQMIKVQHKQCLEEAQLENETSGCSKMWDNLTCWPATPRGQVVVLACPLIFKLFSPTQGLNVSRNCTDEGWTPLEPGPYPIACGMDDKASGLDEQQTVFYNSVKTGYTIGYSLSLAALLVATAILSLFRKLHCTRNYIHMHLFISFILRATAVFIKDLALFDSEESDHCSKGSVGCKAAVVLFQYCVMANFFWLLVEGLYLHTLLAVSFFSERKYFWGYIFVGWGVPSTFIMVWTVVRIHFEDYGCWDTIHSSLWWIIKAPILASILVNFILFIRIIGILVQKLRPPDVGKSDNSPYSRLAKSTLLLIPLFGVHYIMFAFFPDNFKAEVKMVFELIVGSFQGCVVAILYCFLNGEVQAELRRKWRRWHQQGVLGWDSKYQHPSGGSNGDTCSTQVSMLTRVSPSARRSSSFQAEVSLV
Put plainly: cAMP assay in 293/VIPR cells expressing the pVIP receptor. The format is cell-based, porcine. Particulars: for intracellular [cAMP]: 293/VIPR cells, 45 min at 37° C. As to the method: Briefly, a double stranded counterpart to Sequence ID#i, externally modified to incorporate convenient restriction sites, was integrated into the pRc/CMV vector and recombinantly expressed in 293 cells. The cDNA transcript included the signal peptide region of the native transcript facilitating proper orientation and integration into the transfected cell membrane. […] The cAMP level was also measured upon exposure of the transfected cells in response to the addition of secretin, and GHRH, two peptides closely related to VIP.
After removing the solution, 0.5 ml of 60% ethanol was added to lyse the cells in each well. An aliquot was taken, dried in vacUo, and the level of cAMP was determined.
Cells were washed twice with the incubation buffer (Dulbecco's modified Eagle's medium containing 0.5 mM 1-methyl-3-isobutylxanthine and 1 mg/ml BSA). […] After removing the buffer, 0.5 ml of 60% ethanol was added to lyse the cells in each well.
Background: cAMP levels reflect the balance of adenylyl cyclase and phosphodiesterase activity.

Where no end group is shown, it is not given here.

In the case of “GHRH: growth hormone-releasing hormone, a peptide closely related to VIP”, the “intracellular [cAMP]” value runs as follows: (hormone concentration 10^-6 M) 400 pmoles/10^5 cells; (hormone concentration 10^-7 M) 404 pmoles/10^5 cells; (hormone concentration 10^-8 M) 400 pmoles/10^5 cells; (hormone concentration 10^-9 M) 105 pmoles/10^5 cells; (hormone concentration 10^-10 M) below 10 pmoles/10^5 cells; (hormone concentration 10^-11 M) below 10 pmoles/10^5 cells.
On to “porcine secretin (HSDGTFTSELSRLRDSARLQRLLQGLV; ends and bridges not checked; UniProt P63298 33-59, looked up) [peptide hormone closely related to VIP, commercially available from Peninsula Laboratories]”, for which the “intracellular [cAMP]” value by setting is: (hormone concentration 10^-6 M) 440 pmoles/10^5 cells; (hormone concentration 10^-7 M) 240 pmoles/10^5 cells; (hormone concentration 10^-8 M) 185 pmoles/10^5 cells; (hormone concentration 10^-9 M) 28 pmoles/10^5 cells; (hormone concentration 10^-10 M) below 10 pmoles/10^5 cells; (hormone concentration 10^-11 M) below 10 pmoles/10^5 cells.
As to “porcine vasoactive intestinal polypeptide [VIP]”, the “intracellular [cAMP]” value (hormone concentration 10^-6 M) is listed as 420 pmoles/10^5 cells; the “intracellular [cAMP]” value (hormone concentration 10^-7 M) was 440 pmoles/10^5 cells; the “intracellular [cAMP]” value (hormone concentration 10^-8 M) is 404 pmoles/10^5 cells; the “intracellular [cAMP]” value (hormone concentration 10^-9 M) is 64 pmoles/10^5 cells; the “intracellular [cAMP]” value (hormone concentration 10^-10 M) came to 15 pmoles/10^5 cells; the “intracellular [cAMP]” value (hormone concentration 10^-11 M) was below 10 pmoles/10^5 cells. Also, the “intracellular cAMP levels upon exposure (in words)” value (transfected 293 cells expressing the protein of Sequence ID#2) is “intracellular increase in cAMP levels”.
